# T1: LbuCas13a R377A (Leptotrichia buccalis, UniProt C7NBY4 SEQ:1-1159)
# T1 chain: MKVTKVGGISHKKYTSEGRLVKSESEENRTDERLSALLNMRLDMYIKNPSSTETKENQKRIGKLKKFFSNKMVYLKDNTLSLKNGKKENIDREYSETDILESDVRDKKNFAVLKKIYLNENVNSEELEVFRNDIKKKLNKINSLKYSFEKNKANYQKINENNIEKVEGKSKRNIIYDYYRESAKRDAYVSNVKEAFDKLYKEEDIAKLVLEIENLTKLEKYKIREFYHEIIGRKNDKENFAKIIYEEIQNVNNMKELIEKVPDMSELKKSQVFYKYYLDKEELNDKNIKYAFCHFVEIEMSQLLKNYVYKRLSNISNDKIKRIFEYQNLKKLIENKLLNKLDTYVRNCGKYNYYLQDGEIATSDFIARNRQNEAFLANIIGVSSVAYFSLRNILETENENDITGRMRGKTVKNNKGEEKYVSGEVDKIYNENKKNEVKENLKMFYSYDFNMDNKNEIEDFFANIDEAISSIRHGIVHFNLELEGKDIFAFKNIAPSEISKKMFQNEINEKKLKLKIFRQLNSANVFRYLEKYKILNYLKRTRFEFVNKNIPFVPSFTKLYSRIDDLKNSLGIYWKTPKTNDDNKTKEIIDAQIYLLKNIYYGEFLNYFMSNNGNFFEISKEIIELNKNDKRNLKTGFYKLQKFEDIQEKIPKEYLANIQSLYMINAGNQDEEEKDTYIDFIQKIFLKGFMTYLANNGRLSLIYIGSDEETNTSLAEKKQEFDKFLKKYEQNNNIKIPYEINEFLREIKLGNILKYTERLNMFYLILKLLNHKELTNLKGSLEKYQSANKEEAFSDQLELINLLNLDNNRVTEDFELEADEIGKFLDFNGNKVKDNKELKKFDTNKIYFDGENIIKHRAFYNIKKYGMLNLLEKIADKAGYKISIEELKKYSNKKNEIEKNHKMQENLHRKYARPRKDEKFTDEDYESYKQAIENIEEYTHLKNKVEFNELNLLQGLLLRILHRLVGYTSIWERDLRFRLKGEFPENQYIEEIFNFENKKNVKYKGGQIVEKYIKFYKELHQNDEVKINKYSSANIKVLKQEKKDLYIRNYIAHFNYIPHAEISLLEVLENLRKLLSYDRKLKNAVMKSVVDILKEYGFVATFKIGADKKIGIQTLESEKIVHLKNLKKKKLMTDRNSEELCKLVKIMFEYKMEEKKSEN
# Molecular target: T1, LbuCas13a R377A
# Test: cleavage_in_vitro; 10 nM; decreased about 50% vs WT; inactive at 100 pM
# Conditions: tags: His6-MBP-TEV (cleaved); hairpin in direct repeat
binder,measurement,value
del crRNA 20 nt spacer ; perfect match target RNA (ssRNA ; ssRNA) RNA 1: GGCCACCCCAAAAAUGAAGGGGACUAAAACACAAAUCUAUCUGAAUAAAC RNA 2: GGGAAACCAAGAAGAAGAGUUUAUUCAGAUAGAUUUGUCACAGCAGAAGCCCACAC,activity,~50 % of WT
